Source: US20100081612A1 (GENERAL HOSPITAL, published 2010)
Where no end group is shown, it is not given here. [ ]: non-standard residue; d: D form. Cha = N[C@@H](CC1CCCCC1)C(=O)O

T1: wild-type human PTHR (human, UniProt Q03431 27-593)
T1 construct: whole, on cells; also called PTHR-WT; intact PTHR
T1 sequence (looked up): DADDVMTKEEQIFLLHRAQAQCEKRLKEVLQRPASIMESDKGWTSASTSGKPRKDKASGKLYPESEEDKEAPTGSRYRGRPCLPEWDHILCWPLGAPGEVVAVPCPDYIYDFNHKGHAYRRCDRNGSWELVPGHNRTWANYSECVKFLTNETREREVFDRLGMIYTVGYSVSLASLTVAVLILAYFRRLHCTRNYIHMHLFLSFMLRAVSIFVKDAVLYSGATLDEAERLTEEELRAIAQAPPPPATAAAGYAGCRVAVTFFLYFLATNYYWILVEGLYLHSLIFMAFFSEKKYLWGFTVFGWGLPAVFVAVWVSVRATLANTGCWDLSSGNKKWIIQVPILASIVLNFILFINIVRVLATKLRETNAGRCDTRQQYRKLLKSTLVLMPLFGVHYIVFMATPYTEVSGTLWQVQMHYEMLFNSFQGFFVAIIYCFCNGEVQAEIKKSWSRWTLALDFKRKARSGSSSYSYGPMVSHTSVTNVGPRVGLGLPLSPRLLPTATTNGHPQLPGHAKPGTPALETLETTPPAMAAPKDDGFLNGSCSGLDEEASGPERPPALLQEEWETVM

B1: [Ala^1,Arg^19]hPTH(1-31)NH2 Arg^19→Cha (peptide)
peptide: AVSEIQLMHNLGKHLNSM[Cha]RVEWLRKKLQDV-NH2
modifications: N-terminus assumed
SMILES: CC[C@H](C)[C@H](NC(=O)[C@H](CCC(=O)O)NC(=O)[C@H](CO)NC(=O)[C@@H](NC(=O)[C@H](C)N)C(C)C)C(=O)N[C@@H](CCC(N)=O)C(=O)N[C@@H](CC(C)C)C(=O)N[C@@H](CCSC)C(=O)N[C@@H](Cc1c[nH]cn1)C(=O)N[C@@H](CC(N)=O)C(=O)N[C@@H](CC(C)C)C(=O)NCC(=O)N[C@@H](CCCCN)C(=O)N[C@@H](Cc1c[nH]cn1)C(=O)N[C@@H](CC(C)C)C(=O)N[C@@H](CC(N)=O)C(=O)N[C@@H](CO)C(=O)N[C@@H](CCSC)C(=O)N[C@@H](CC1CCCCC1)C(=O)N[C@@H](CCCNC(=N)N)C(=O)N[C@H](C(=O)N[C@@H](CCC(=O)O)C(=O)N[C@@H](Cc1c[nH]c2ccccc12)C(=O)N[C@@H](CC(C)C)C(=O)N[C@@H](CCCNC(=N)N)C(=O)N[C@@H](CCCCN)C(=O)N[C@@H](CCCCN)C(=O)N[C@@H](CC(C)C)C(=O)N[C@@H](CCC(N)=O)C(=O)N[C@@H](CC(=O)O)C(=O)N[C@H](C(N)=O)C(C)C)C(C)C
B2: [Ala^1,Arg^19]hPTH(1-31)NH2 Glu^22→Cha (peptide)
peptide: AVSEIQLMHNLGKHLNSMRRV[Cha]WLRKKLQDV-NH2
modifications: N-terminus assumed
SMILES: CC[C@H](C)[C@H](NC(=O)[C@H](CCC(=O)O)NC(=O)[C@H](CO)NC(=O)[C@@H](NC(=O)[C@H](C)N)C(C)C)C(=O)N[C@@H](CCC(N)=O)C(=O)N[C@@H](CC(C)C)C(=O)N[C@@H](CCSC)C(=O)N[C@@H](Cc1c[nH]cn1)C(=O)N[C@@H](CC(N)=O)C(=O)N[C@@H](CC(C)C)C(=O)NCC(=O)N[C@@H](CCCCN)C(=O)N[C@@H](Cc1c[nH]cn1)C(=O)N[C@@H](CC(C)C)C(=O)N[C@@H](CC(N)=O)C(=O)N[C@@H](CO)C(=O)N[C@@H](CCSC)C(=O)N[C@@H](CCCNC(=N)N)C(=O)N[C@@H](CCCNC(=N)N)C(=O)N[C@H](C(=O)N[C@@H](CC1CCCCC1)C(=O)N[C@@H](Cc1c[nH]c2ccccc12)C(=O)N[C@@H](CC(C)C)C(=O)N[C@@H](CCCNC(=N)N)C(=O)N[C@@H](CCCCN)C(=O)N[C@@H](CCCCN)C(=O)N[C@@H](CC(C)C)C(=O)N[C@@H](CCC(N)=O)C(=O)N[C@@H](CC(=O)O)C(=O)N[C@H](C(N)=O)C(C)C)C(C)C
B3: [Ala^1,Arg^19]hPTH(1-31)NH2 Met^18→Cha (peptide)
peptide: AVSEIQLMHNLGKHLNS[Cha]RRVEWLRKKLQDV-NH2
modifications: N-terminus assumed
SMILES: CC[C@H](C)[C@H](NC(=O)[C@H](CCC(=O)O)NC(=O)[C@H](CO)NC(=O)[C@@H](NC(=O)[C@H](C)N)C(C)C)C(=O)N[C@@H](CCC(N)=O)C(=O)N[C@@H](CC(C)C)C(=O)N[C@@H](CCSC)C(=O)N[C@@H](Cc1c[nH]cn1)C(=O)N[C@@H](CC(N)=O)C(=O)N[C@@H](CC(C)C)C(=O)NCC(=O)N[C@@H](CCCCN)C(=O)N[C@@H](Cc1c[nH]cn1)C(=O)N[C@@H](CC(C)C)C(=O)N[C@@H](CC(N)=O)C(=O)N[C@@H](CO)C(=O)N[C@@H](CC1CCCCC1)C(=O)N[C@@H](CCCNC(=N)N)C(=O)N[C@@H](CCCNC(=N)N)C(=O)N[C@H](C(=O)N[C@@H](CCC(=O)O)C(=O)N[C@@H](Cc1c[nH]c2ccccc12)C(=O)N[C@@H](CC(C)C)C(=O)N[C@@H](CCCNC(=N)N)C(=O)N[C@@H](CCCCN)C(=O)N[C@@H](CCCCN)C(=O)N[C@@H](CC(C)C)C(=O)N[C@@H](CCC(N)=O)C(=O)N[C@@H](CC(=O)O)C(=O)N[C@H](C(N)=O)C(C)C)C(C)C
B4: [Ala^1,Arg^19]hPTH(1-31)NH2 Val^21→Cha (peptide)
peptide: AVSEIQLMHNLGKHLNSMRR[Cha]EWLRKKLQDV-NH2
modifications: N-terminus assumed
SMILES: CC[C@H](C)[C@H](NC(=O)[C@H](CCC(=O)O)NC(=O)[C@H](CO)NC(=O)[C@@H](NC(=O)[C@H](C)N)C(C)C)C(=O)N[C@@H](CCC(N)=O)C(=O)N[C@@H](CC(C)C)C(=O)N[C@@H](CCSC)C(=O)N[C@@H](Cc1c[nH]cn1)C(=O)N[C@@H](CC(N)=O)C(=O)N[C@@H](CC(C)C)C(=O)NCC(=O)N[C@@H](CCCCN)C(=O)N[C@@H](Cc1c[nH]cn1)C(=O)N[C@@H](CC(C)C)C(=O)N[C@@H](CC(N)=O)C(=O)N[C@@H](CO)C(=O)N[C@@H](CCSC)C(=O)N[C@@H](CCCNC(=N)N)C(=O)N[C@@H](CCCNC(=N)N)C(=O)N[C@@H](CC1CCCCC1)C(=O)N[C@@H](CCC(=O)O)C(=O)N[C@@H](Cc1c[nH]c2ccccc12)C(=O)N[C@@H](CC(C)C)C(=O)N[C@@H](CCCNC(=N)N)C(=O)N[C@@H](CCCCN)C(=O)N[C@@H](CCCCN)C(=O)N[C@@H](CC(C)C)C(=O)N[C@@H](CCC(N)=O)C(=O)N[C@@H](CC(=O)O)C(=O)N[C@H](C(N)=O)C(C)C
B5: [Ala^1,Arg^19]hPTH(1-31)NH2 Lys^27→Cha (peptide)
peptide: AVSEIQLMHNLGKHLNSMRRVEWLRK[Cha]LQDV-NH2
modifications: N-terminus assumed
SMILES: CC[C@H](C)[C@H](NC(=O)[C@H](CCC(=O)O)NC(=O)[C@H](CO)NC(=O)[C@@H](NC(=O)[C@H](C)N)C(C)C)C(=O)N[C@@H](CCC(N)=O)C(=O)N[C@@H](CC(C)C)C(=O)N[C@@H](CCSC)C(=O)N[C@@H](Cc1c[nH]cn1)C(=O)N[C@@H](CC(N)=O)C(=O)N[C@@H](CC(C)C)C(=O)NCC(=O)N[C@@H](CCCCN)C(=O)N[C@@H](Cc1c[nH]cn1)C(=O)N[C@@H](CC(C)C)C(=O)N[C@@H](CC(N)=O)C(=O)N[C@@H](CO)C(=O)N[C@@H](CCSC)C(=O)N[C@@H](CCCNC(=N)N)C(=O)N[C@@H](CCCNC(=N)N)C(=O)N[C@H](C(=O)N[C@@H](CCC(=O)O)C(=O)N[C@@H](Cc1c[nH]c2ccccc12)C(=O)N[C@@H](CC(C)C)C(=O)N[C@@H](CCCNC(=N)N)C(=O)N[C@@H](CCCCN)C(=O)N[C@@H](CC1CCCCC1)C(=O)N[C@@H](CC(C)C)C(=O)N[C@@H](CCC(N)=O)C(=O)N[C@@H](CC(=O)O)C(=O)N[C@H](C(N)=O)C(C)C)C(C)C
notes: also called Cha^27 analog

These binders were tested against T1, wild-type human PTHR (assay: competition binding, HKRK-B7 cells, 125I-PTH(1-34) tracer).

fold change in binding affinity vs [Ala^1,Arg^19]PTH(1-31)NH2 [fold] | Binder
≤ 6 | B1
≤ 6 | B2
≤ 6 | B3
≤ 6 | B4
≤ 6 | B5

Target: T1, wild-type human PTHR
Test: as above
Remark: another data set of the same source
Description: Receptor binding—Binding to the wild-type human PTHR in intact HKRK-B7 cells and ROS 17/2.8 cells was assessed using ¹²⁵I-PTH(1-34) as a tracer radioligand, as described (Shimizu, M., (2001) Endocrinology 142:3068-3074). In brief, the cells in 24-well plates (about 500,000 cells per well) were incubated in binding buffer containing radioligand (about 100,000 cpm per well) with or without unlabeled peptide ligand (3×10⁻⁹ to 1×10⁻⁵ M) for four hours at 15° C. The binding mixture was then removed by aspiration, the cells were rinsed three times with binding buffer, lysed in 1 M NaOH, and the entire lysate was counted for gamma-irradiation in a gamma counter. Binding to PTHR-delNt in COS-7 cell membranes was assessed in 96-well, vacuum filtration plates (Multiscreen-Durapore HV, […], Millipore Corp., Millford, Mass.) using ¹²⁵I-[Aib^{1,3},M]PTH(1-15)NH₂ as a tracer radioligand, as described (Dean, T., (2006) Mol Endocrinol 20:931-942). In brief, cell membranes (20 μg/well) were incubated in membrane binding buffer containing radioligand (30,000 cpm/well) with or without unlabeled peptide ligand (3×10⁻⁹ to 1×10⁻⁵ M) for 90 minutes at 21° C. The plates were then subject to rapid vacuum filtration, the filters were washed once with buffer, detached from the plate and counted for gamma-irradiation in a gamma counter. Non-specific binding was defined as the binding observed in the presence of 1×10⁻⁶ M PTH(1-31)NH₂ for HKRK-B7 and ROS 17/2.8 cells, and 1×10⁻⁶ M [Aib^{1,3},M]PTH(1-15)NH₂ for PTHR-delNt. Specifically bound radioactivity was calculated as a percentage of the radioactivity specifically bound in the absence of competing ligand.
Cyclohexylalanine and glutamate substitutions were introduced into [Ala¹,Arg¹⁹]hPTH(1-31)NH₂. The helical residue values were calculated from [θ]₂₂₂, the mean-residue elipticities observed in the CD spectra at 222 nm. Competition binding studies were performed in intact HKRK-B7 cells stably transfected with the hPTHR using ¹²⁵I-[Nle^{8,21},Tyr³⁴]rPTH(1-34)NH ₂ tracer radioligand, and in membranes prepared from COS-7 cells transiently transfected with hPTHR-delNt and a negative-dominant Gαs using ¹²⁵I-[Aib^{1,3},Nle⁸,Gln¹⁰,Har¹¹,Ala¹²,Trp¹⁴,Tyr¹⁵]rPTH(1-15)NH₂ tracer radioligand. Binding values (nM) are means (+/−s.e.m.) of data from the number of experiments indicated (n).

IC50 [nM] | Binder
233 | B1
75 | B2
87 | B3
74 | B4
91 | B5

The binders below were run against PTHR-delNt (human) (UniProt Q03431) (assay: competition binding, COS-7 membranes, 125I-[Aib1,3,M]PTH(1-15) tracer).

IC50 [nM] | fold change in binding affinity vs [Ala^1,Arg^19]PTH(1-31)NH2 [fold] | Binder
780 | < 3 | B1
126 | < 3 | B2
408 | < 3 | B3
564 | < 3 | B4
629 | < 3 | B5
